Measurements reported in publication PMC6638984, “Increased association between Epstein-Barr virus EBNA2 from type 2 strains and the transcriptional repressor BS69 restricts EBNA2 activity” (PLoS Pathogens, 2019).

B1: type 2 EBNA2 polypeptide T2 EBNA2_(348-422) [Epstein-Barr virus type 2 (AG876)] / BS69 coiled-coil MYND domain (BS69_(CC-MYND), amino acids 480-602) [human] (parent)
chain 1: SMPQLSPVVSLHQGQGPENSPTPGPSTAGPVCRVTPSATPDISPIHEPESSDSEEPPFLFPSDWYPPTLEPAELD
chain 2: DRMKSDHKRETERVVREALEKLRSEMEEEKRQAVNKAVANMQGEMDRKCKQVKEKCKEEFVEEIKKLATQHKQLISQTKKKQWCYNCEEEAMYHCCWNTSYCSIKCQQEHWHAEHKRTCRRKR

Variants of: B1
Experiment: ITC
Conditions: with BS69 coiled-coil MYND domain (BS69_(CC-MYND), amino acids 480-602) [human], two-site model, 29 injections of 1.3 μl 0.3 mM EBNA2 polypeptide and 0.1 mM BS69CC-MYND in the cell
[1] = binding event 1 (KD1), parent: 9 nM
[2] = binding event 2 (KD2), parent: 91 nM

chain 1 SMPQLSPVVSLHQGQGPENSPTPGPSTAGPVCRVTPSATPDISPIHEPESSDSEEPPFLFPDDWYPPTLEPAELD [chain 1 S62D] was tested, and the Kd [1] was 5 nM and the Kd [2] was 94 nM.

With chain 1 SMPQLSPVVSLHQGQGPENSPTPGPSTAGPVCRVTPSATPDISPIHEPESSDSEEPPFLFPDDWYPATAEAAELD [chain 1 S62D P67A L69A P71A] the Kd [1] was 8 nM and the Kd [2] was 200 nM.
